# Assay results: patent publication US20220089710A1, “Method of Treating Signs and Symptoms of Osteoarthritis” (Pfizer Inc., priority 2019, published 2022)
# Tests used:
# [1] = tested on: patients with osteoarthritis (OA) of the knee or hip; assay: Example 3: treatment-emergent adverse events and deaths, Safety Population; conditions: 5 mg SC; treatment period;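 also: seven SC injections given 8 weeks apart plus twice-daily oral study medication up to Week 56, Safety Population of all patients dosed at least once SC, analyzed by treatment actually received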
# Description: Patients received a total of seven SC injections, each separated by 8 weeks and daily oral (PO) study medication BID through Week 56.
# The Intent-to-Treat (ITT) Population included all patients who were randomized and received at least one dose of SC study drug. This analysis set was primary for all efficacy endpoints, which were analyzed according to randomization assignment. The Safety Population included all patients who received at least one dose of SC study treatment. This analysis set was primary for all safety endpoints, which were analyzed according to treatment received.
# [2] = tested on: patients with OA of the knee or hip; assay: Example 2: safety, including adjudication of joint safety events; type: in vivo, human
# Description: Key inclusion criteria were Western Ontario and McMaster Universities Osteoarthritis Index (WOMAC) Pain and Physical Function scores in the index joint; a Patient Global Assessment of OA (PGA-OA) score of fair, poor, or very poor; a history of insufficient pain relief or intolerance to acetaminophen, oral NSAID, and either tramadol or opioids (or unwilling to take opioids). […] Co-primary endpoints were change from baseline in WOMAC Pain, WOMAC Physical Function, and PGA-OA scores at week 24 compared with placebo. Three key secondary endpoints were: reduction in the WOMAC Pain subscale of 50%, at Week 24, WOMAC Pain subscale change from Baseline to Week 2, and weekly average pain score (based on daily diary) in the index joint change from Baseline to Week 1. Safety, including adjudication of joint safety events, was assessed.
substance,measurement,setting,value
tanezumab: humanized immunoglobulin G Type 2 (IgG2) monoclonal antibody directed against human nerve growth factor (NGF); SEQ ID NOs: 9 or 11 and 10,Arthralgia: number of patients,[1],165
same,Back pain: % of patients,[1],5.5%
same,Back pain: number of patients,[1],55
same,Discontinued from study (adverse event): % of patients,[1],2.0%
same,Discontinued from study (adverse event): number of patients,[1],20
same,Discontinued study drug and continued study (adverse event): % of patients,[1],8.8%
same,Discontinued study drug and continued study (adverse event): number of patients,[1],88
same,Fall: % of patients,[1],5.3%
same,Fall: number of patients,[1],53
same,Headache: % of patients,[1],4.5%
same,Headache: number of patients,[1],45
same,Joint swelling: % of patients,[1],4.8%
same,Joint swelling: number of patients,[1],48
same,Musculoskeletal pain: % of patients,[1],4.1%
same,Musculoskeletal pain: number of patients,[1],41
same,Nasopharyngitis: % of patients,[1],6.7%
same,Nasopharyngitis: number of patients,[1],67
same,Osteoarthritis: % of patients,[1],5.4%
same,Osteoarthritis: number of patients,[1],54
same,Pain in extremity: % of patients,[1],3.7%
same,Pain in extremity: number of patients,[1],37
same,Paraesthesia: % of patients,[1],3.0%
same,Paraesthesia: number of patients,[1],30
same,Peripheral edema: % of patients,[1],4.3%
same,Peripheral edema: number of patients,[1],43
same,Rapidly progressive osteoarthritis (adverse event): % of patients,[1],4.1%
same,Rapidly progressive osteoarthritis (adverse event): number of patients,[1],41
same,Serious AE Acute kidney injury: %,[1],0.2%
same,Serious AE Acute kidney injury: n,[1],2
same,Serious AE Acute myocardial infarction: %,[1],0.1%
same,Serious AE Acute myocardial infarction: n,[1],1
same,Serious AE Arthralgia: %,[1],0.9%
same,Serious AE Arthralgia: n,[1],9
same,Serious AE Cellulitis: %,[1],0.2%
same,Serious AE Cellulitis: n,[1],2
same,Serious AE Cerebrovascular accident: n,[1],0
same,Serious AE Gastrointestinal hemorrhage: n,[1],0
same,Serious AE Intervetebral disc protrusion: %,[1],0.2%
same,Serious AE Intervetebral disc protrusion: n,[1],2
same,Serious AE Meniscus injury: %,[1],0.3%
same,Serious AE Meniscus injury: n,[1],3
same,Serious AE Osteoarthritis: %,[1],1.7%
same,Serious AE Osteoarthritis: n,[1],17
same,Serious AE Osteonecrosis: %,[1],0.2%
same,Serious AE Osteonecrosis: n,[1],2
same,Serious AE Pneumonia: %,[1],0.2%
same,Serious AE Pneumonia: n,[1],2
same,Serious AE RPOA: %,[1],1.1%
same,Serious AE RPOA: n,[1],11
same,Serious AE Subchondral insufficiency fracture: %,[1],0.4%
same,Serious AE Subchondral insufficiency fracture: n,[1],4
same,Serious Adverse Event (any event): % of patients,[1],8.0%
same,Serious Adverse Event (any event): number of patients,[1],80
same,Severe Adverse Event: % of patients,[1],6.8%
same,Severe Adverse Event: number of patients,[1],68
same,Upper respiratory tract infection: number of patients,[1],45
same,Pre-specified composite joint safety endpoint events: % of patients,[2]; 2.5 mg SC,1.8%
same,TJRs: % of patients,[2]; 2.5 mg SC,7.8%
same,Treatment-emergent AEs: % of patients,[2]; 2.5 mg SC,53%
same,incidence of serious AEs,[2]; 2.5 mg SC,2.8%
same,Pre-specified composite joint safety endpoint events: % of patients,[2]; 5 mg SC,3.2%
same,TJRs: % of patients,[2]; 5 mg SC,7.0%
same,Treatment-emergent AEs: % of patients,[2]; 5 mg SC,57%
same,incidence of serious AEs,[2]; 5 mg SC,3.2%
